From patent US20060141569A1 (published 2006)

What was measured:
[1] = target: T1, C5aR transfected into CHEM-1 cells using the pHS vector (UniProt P21730 1-350); experiment: binding
T1 chain: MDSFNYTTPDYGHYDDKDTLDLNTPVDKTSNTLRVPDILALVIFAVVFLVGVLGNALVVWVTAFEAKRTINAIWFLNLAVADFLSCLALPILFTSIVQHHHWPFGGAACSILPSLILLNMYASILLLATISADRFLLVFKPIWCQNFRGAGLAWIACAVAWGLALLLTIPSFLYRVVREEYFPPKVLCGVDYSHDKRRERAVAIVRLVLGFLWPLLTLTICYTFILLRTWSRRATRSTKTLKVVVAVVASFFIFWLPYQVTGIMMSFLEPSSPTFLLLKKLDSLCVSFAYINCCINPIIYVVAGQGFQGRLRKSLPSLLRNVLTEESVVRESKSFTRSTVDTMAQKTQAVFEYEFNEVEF

[2] = target: C5aR+Gα15/CHO; experiment: binding; two sites, site 1
[3] = target: C5aR+Gα15/CHO; experiment: binding; two sites, site 2

B1: C5a (ligand)
chain: TLQKKIEEIAAKYKHSVVKKCCYDGACVNNDETCEQRAARISLGPRCIKAFTECCVVASQLRANISHKDMQLGR
Q: Which Ki [1] does the source give for B1 here?
A: Its Ki is 0.5 nM.

Q: What about the Ki [2] of the same binder?
A: Its Ki is 0.6 nM.

Q: And the Ki [3]?
A: The Ki was 34 nM.
